Biological target: Creatine kinase brain type (CKB) (UniProt P12277 1-381)
Experiment: SEC-MALS

Chain of Creatine kinase brain type (CKB) (P12277 whole entry): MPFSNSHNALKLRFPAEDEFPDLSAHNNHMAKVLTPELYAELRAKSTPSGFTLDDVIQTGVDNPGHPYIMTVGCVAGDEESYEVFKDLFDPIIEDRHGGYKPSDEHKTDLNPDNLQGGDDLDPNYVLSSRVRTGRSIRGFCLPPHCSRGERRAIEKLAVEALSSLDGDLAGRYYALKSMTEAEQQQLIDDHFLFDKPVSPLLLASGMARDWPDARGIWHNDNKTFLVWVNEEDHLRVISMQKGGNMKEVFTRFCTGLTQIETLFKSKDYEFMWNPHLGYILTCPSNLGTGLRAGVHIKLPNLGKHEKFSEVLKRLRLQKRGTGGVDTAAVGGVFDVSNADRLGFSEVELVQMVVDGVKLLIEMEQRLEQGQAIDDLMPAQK

B1: ASB9(1-252) (domain or fragment, UniProt Q96DX5 1-252, looked up)
chain: MDGKQGGMDGSKPAGPRDFPGIRLLSNPLMGDAVSDWSPMHEAAIHGHQLSLRNLISQGWAVNIITADHVSPLHEACLGGHLSCVKILLKHGAQVNGVTADWHTPLFNACVSGSWDCVNLLLQHGASVQPESDLASPIHEAARRGHVECVNSLIAYGGNIDHKISHLGTPLYLACENQQRACVKKLLESGADVNQGKGQDSPLHAVARTASEELACLLMDFGADTQAKNAEGKRPVELVPPESPLAQLFLER
- stoichiometry N: 1 ASB9 per CK dimer

— article PMC4348336 (Biochemistry, 2015)
